The data set has as its system T1, OhsR:C125S C125S (Corynebacterium glutamicum), ORF:a3d30e29.
T1 sequence: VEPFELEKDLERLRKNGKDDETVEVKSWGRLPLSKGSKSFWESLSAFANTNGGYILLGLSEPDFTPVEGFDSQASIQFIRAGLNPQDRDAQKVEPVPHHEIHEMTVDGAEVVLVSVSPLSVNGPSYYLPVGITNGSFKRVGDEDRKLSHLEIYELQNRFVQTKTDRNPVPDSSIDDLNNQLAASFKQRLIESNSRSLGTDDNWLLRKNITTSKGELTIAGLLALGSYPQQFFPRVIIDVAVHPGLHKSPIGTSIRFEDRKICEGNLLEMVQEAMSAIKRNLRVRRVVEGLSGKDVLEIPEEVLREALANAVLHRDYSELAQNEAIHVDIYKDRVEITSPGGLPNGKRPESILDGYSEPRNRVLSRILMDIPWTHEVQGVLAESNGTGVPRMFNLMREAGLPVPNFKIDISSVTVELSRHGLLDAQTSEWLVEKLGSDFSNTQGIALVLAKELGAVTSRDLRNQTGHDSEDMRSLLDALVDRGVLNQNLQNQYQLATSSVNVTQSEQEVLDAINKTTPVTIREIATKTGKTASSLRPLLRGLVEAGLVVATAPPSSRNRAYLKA
In words: EMSA. The following applies: EMSA: 20 mM Tris-HCl pH 7.4, 4 mM MgCl2, 100 mM NaCl, 10% glycerol, room temperature 30 min; 20 ng DNA, 0-4 ug OhsR; 6% native PAGE, 0.5x TBE, SYBR Green.

Turning to “CACCTTGTTGGTGGGCCGGGATTTTTGTTGTTTAGATTTTTGAAAGCACACTTTTGTCCCTTAACTAGTGCGTGTGTACATTCGACACCAAGATTTGGGCAATATGGTGCCCAAAATCAGGAAATCTTGCTGTCTAATGCACAACGGAAAACTGCTCACGGACGAACTAGTTGTAGCGAGCGTATTCTTTGTGTTCTCTC (double strand) [Pohr (ohr promoter, 200 bp)]”, the binding entry is reported as “no binding”.

For the origin of these results see paper PMC6306002.
